Publication PMC12313940, “Insights into a water-mediated catalytic triad architecture in CE20 carbohydrate esterases” (Nature Communications, 2025)
Where a chain is given by its changes, count along the chain named. Numbers in names are those of the source.

Legend:
PpCE20_II = biological target: T1, PpCE20_II (Pedobacter psychrotolerans, UniProt A0A4R2HIK5); assay: p-nitrophenolate release, stopped with acetonitrile, […] nm; format: biochemical; conditions: preferred temperature and pH of the enzyme
T1 construct: gene EV200_102244; catalytic residues Ser114, Asp518, His520

Fl8CE20_II [1] = biological target: T2, Fl8CE20_II (Salinimicrobium marinum, UniProt A0A918SDW1, K371M); assay: p-nitrophenol release, absorbance […] nm, Michaelis-Menten fit; format: biochemical; conditions: 50 mM Tris-HCl pH 8.0, 100 mM NaCl, 5% DMSO, room temperature
T2 construct: gene GCM10007103_17970; pET28a(+), N-terminal 6xHis tag, expressed in E. coli BL21(DE3), SGNH hydrolase with inserted ancillary domain

Fl8CE20_II [2] = biological target: T3, Fl8CE20_II (Salinimicrobium marinum, UniProt A0A918SDW1, Y335N); assay: as above; format: biochemical; conditions: 50 mM Tris-HCl pH 8.0, 100 mM NaCl, 5% DMSO, room temperature
T3 construct: gene GCM10007103_17970; pET28a(+), N-terminal 6xHis tag, expressed in E. coli BL21(DE3), SGNH hydrolase with inserted ancillary domain

purified protein = substrate: CC(=O)Oc1ccc([N+](=O)[O-])cc1; assay: purified protein; format: biochemical, Salinimicrobium marinum; conditions: 50 mM Tris-HCl pH 8.0, 100 mM NaCl, 5% DMSO, room temperature

T3 sequence (A0A918SDW1 entry or part of it Y335N): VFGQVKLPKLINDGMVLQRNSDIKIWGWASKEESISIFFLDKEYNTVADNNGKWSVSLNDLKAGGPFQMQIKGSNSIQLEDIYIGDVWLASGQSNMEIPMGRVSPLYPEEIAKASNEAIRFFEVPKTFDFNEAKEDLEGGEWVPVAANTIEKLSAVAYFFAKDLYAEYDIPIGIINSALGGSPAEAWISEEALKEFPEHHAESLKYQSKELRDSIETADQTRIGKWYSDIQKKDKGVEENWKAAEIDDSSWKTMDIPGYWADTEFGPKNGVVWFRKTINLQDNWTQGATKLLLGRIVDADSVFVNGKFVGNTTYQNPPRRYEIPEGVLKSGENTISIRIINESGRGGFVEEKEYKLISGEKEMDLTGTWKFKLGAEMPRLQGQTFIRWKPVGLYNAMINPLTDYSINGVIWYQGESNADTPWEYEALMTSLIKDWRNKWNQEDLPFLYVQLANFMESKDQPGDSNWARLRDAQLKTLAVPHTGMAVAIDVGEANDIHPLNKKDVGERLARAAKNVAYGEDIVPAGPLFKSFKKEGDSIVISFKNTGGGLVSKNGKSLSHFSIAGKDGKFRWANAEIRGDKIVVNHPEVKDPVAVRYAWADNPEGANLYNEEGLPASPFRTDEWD
T2 sequence (A0A918SDW1 entry or part of it K371M): as the sequence (A0A918SDW1 entry or part of it Y335N) above, with N316Y, K352M counted along it
T1 sequence (A0A4R2HIK5 entry or part of it): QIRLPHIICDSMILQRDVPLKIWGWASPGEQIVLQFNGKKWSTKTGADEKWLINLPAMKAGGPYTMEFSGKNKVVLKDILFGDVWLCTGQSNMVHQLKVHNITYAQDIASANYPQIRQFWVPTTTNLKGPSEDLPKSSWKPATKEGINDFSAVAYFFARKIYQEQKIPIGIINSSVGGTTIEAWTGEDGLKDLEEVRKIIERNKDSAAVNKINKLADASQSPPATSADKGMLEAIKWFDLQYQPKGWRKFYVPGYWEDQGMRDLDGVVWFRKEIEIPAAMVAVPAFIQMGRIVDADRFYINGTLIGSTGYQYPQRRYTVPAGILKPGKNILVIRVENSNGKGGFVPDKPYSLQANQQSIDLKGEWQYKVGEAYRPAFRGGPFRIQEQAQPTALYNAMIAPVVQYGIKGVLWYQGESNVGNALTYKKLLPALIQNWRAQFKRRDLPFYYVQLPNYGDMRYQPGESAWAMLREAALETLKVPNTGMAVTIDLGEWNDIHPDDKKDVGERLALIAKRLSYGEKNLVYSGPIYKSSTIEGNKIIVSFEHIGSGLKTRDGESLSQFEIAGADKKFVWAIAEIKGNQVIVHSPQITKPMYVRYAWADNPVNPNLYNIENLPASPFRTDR

Question: Which results are given for CC(=O)Oc1ccc([N+](=O)[O-])cc1 [pNP-acetate]?
Answer: KM (PpCE20_II): In terms of biochemical and kinetic behaviour, all enzymes showed similar properties; KM (Fl8CE20_II [1]): slight reduction of kcat while showing the same KM as the mutant D513N; KM (Fl8CE20_II [2]): mutation of Tyr334 to Asn in the ancillary domain resulted in a decrease in kcat

B1: Fl8CE20_II (Salinimicrobium marinum) (protein)
chain: VFGQVKLPKLINDGMVLQRNSDIKIWGWASKEESISIFFLDKEYNTVADNNGKWSVSLNDLKAGGPFQMQIKGSNSIQLEDIYIGDVWLASGQSNMEIPMGRVSPLYPEEIAKASNEAIRFFEVPKTFDFNEAKEDLEGGEWVPVAANTIEKLSAVAYFFAKDLYAEYDIPIGIINSALGGSPAEAWISEEALKEFPEHHAESLKYQSKELRDSIETADQTRIGKWYSDIQKKDKGVEENWKAAEIDDSSWKTMDIPGYWADTEFGPKNGVVWFRKTINLQDNWTQGATKLLLGRIVDADSVFVNGKFVGNTTYQYPPRRYEIPEGVLKSGENTISIRIINESGRGGFVEEKEYKLISGEKEMDLTGTWKFKLGAEMPRLQGQTFIRWKPVGLYNAMINPLTDYSINGVIWYQGESNADTPWEYEALMTSLIKDWRNKWNQEDLPFLYVQLANFMESKDQPGDSNWARLRDAQLKTLAVPHTGMAVAIDVGEANDIHPLNKKDVGERLARAAKNVAYGEDIVPAGPLFKSFKKEGDSIVISFKNTGGGLVSKNGKSLSHFSIAGKDGKFRWANAEIRGDKIVVNHPEVKDPVAVRYAWADNPEGANLYNEEGLPASPFRTDEWD
notes: pET28a(+), N-terminal 6xHis tag, expressed in E. coli BL21(DE3), SGNH hydrolase with inserted ancillary domain
Question: How did the Km (purified protein) turn out when B1 was run?
Answer: 620 µM

Question: And the kcat (purified protein)?
Answer: 9.70 s⁻¹

B2: Fl8CE20_II (Salinimicrobium marinum; R314E) (protein)
chain: B1 chain with R295E
notes: as for B1
Question: For B2, which Km (purified protein) is on record?
Answer: 300 µM

Question: And the kcat (purified protein)?
Answer: 4.67 s⁻¹

B3: Fl8CE20_II (Salinimicrobium marinum; D514Q) (protein)
chain: B1 chain with D495Q
notes: as for B1
Question: For B3, which Km (purified protein) is on record?
Answer: 9890 µM

Question: What about the kcat (purified protein) of the same molecule?
Answer: 0.18 s⁻¹

B4: Fl8CE20_II (Salinimicrobium marinum; S435A) (protein)
chain: B1 chain with S416A
notes: as for B1
Question: Which results are given for B4?
Answer: Km (purified protein): 210 µM; kcat (purified protein): 4.48 s⁻¹

B5: Fl8CE20_II (Salinimicrobium marinum; R314Q) (protein)
chain: B1 chain with R295Q
notes: as for B1
Question: Which Km (purified protein) does the source give for B5 here?
Answer: 40 µM

Question: What about the kcat (purified protein) of the same molecule?
Answer: 1.3 s⁻¹

B6: Fl8CE20_II (Salinimicrobium marinum; D514E) (protein)
chain: B1 chain with D495E
notes: as for B1
Question: B6 was tested. Which Km (purified protein) did it give?
Answer: 2300 µM

Question: And the kcat (purified protein)?
Answer: 0.43 s⁻¹
